Columns and labels:
[1] = biological target: T1, mouse neuropilin-2(a5), myc-tagged, expressed in COS-7 cells (mouse, UniProt O35375 21-931); assay: AP histochemistry on transfected COS cells
T1 construct: also called a5 isoform of neuropilin-2; SR2(a)5
T1 sequence: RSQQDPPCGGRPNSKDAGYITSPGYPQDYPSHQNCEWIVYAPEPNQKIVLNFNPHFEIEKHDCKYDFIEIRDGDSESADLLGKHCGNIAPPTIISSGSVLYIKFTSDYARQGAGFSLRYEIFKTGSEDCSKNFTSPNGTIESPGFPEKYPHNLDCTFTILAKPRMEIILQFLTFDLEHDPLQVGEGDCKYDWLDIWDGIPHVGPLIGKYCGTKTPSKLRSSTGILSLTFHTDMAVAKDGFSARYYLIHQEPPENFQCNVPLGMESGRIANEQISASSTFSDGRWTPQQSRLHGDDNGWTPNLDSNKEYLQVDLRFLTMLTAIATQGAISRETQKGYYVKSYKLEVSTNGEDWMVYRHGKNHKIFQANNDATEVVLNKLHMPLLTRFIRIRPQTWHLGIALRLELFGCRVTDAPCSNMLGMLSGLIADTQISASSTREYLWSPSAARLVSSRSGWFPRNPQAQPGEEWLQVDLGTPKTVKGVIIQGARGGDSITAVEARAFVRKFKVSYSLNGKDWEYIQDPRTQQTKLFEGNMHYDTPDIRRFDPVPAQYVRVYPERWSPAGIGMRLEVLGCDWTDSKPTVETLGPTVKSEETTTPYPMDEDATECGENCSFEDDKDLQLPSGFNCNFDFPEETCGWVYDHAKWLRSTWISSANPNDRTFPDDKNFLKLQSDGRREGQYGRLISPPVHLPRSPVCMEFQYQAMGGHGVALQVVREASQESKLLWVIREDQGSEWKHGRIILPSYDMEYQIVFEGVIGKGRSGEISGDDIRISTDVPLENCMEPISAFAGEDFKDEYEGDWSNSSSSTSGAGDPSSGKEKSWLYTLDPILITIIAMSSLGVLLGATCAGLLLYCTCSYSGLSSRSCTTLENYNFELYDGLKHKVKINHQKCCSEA

[2] = biological target: T2, mouse neuropilin-2(a22), myc-tagged, expressed in COS-7 cells (mouse, UniProt O35375 21-931); assay: AP histochemistry on transfected COS cells
T2 construct: also called SR2(a)22
T2 sequence: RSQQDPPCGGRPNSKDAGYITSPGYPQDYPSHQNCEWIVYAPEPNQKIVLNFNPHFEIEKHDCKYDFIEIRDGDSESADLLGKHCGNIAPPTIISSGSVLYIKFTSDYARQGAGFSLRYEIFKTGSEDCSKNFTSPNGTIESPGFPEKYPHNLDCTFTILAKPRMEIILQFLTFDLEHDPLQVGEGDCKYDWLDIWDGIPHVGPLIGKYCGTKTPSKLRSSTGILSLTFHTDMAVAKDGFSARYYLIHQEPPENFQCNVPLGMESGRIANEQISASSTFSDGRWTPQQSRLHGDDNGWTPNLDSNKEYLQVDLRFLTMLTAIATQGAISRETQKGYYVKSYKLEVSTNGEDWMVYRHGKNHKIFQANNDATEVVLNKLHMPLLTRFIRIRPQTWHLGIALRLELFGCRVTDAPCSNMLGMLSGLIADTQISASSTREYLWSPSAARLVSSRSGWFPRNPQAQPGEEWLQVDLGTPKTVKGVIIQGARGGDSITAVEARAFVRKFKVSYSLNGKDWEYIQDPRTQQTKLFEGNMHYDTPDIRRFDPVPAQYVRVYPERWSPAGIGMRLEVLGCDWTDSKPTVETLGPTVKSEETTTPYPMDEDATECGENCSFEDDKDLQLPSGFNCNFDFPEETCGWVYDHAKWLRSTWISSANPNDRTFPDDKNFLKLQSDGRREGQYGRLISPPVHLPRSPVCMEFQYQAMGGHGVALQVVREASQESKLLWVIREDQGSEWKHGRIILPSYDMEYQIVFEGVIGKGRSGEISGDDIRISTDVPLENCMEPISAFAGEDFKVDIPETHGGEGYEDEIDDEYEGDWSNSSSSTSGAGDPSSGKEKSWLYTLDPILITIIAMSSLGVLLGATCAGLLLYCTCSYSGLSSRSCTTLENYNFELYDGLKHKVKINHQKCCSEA

[3] = biological target: T3, mouse neuropilin-2(a0), myc-tagged, expressed in COS-7 cells (mouse, UniProt O35375 21-931); assay: AP histochemistry on transfected COS cells
T3 construct: also called SR2(a)0; m-npn-2
T3 sequence: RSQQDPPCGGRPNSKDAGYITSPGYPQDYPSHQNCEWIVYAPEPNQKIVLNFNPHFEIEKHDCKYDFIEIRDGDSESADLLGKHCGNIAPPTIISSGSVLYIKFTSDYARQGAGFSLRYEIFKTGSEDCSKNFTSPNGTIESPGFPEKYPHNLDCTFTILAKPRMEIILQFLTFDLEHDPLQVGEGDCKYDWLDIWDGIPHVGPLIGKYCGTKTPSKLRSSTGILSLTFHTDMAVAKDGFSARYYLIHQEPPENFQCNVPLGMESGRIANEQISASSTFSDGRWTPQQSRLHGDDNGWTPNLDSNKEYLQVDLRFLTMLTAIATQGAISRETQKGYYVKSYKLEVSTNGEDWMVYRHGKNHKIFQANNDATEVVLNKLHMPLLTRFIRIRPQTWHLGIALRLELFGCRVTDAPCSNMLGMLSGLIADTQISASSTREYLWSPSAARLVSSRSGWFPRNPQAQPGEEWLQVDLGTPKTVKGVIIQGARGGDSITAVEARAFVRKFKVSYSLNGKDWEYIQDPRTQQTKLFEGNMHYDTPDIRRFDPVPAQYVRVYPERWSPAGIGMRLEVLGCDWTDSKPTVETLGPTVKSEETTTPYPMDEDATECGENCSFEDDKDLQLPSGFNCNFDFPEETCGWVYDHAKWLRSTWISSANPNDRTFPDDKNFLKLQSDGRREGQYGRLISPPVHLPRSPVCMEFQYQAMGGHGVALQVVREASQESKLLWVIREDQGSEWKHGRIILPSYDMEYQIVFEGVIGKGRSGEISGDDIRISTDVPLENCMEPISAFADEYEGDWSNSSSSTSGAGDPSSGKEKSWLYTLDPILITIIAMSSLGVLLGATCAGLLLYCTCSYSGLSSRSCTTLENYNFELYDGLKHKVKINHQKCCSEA

[4] = biological target: T4, rat semaphorin receptor 1 (rSR1), full length, expressed on cells (rat, UniProt Q9QWJ9 22-922); assay: binding to transfected COS-7 cells
T4 construct: also called rat SR1; p28
T4 sequence: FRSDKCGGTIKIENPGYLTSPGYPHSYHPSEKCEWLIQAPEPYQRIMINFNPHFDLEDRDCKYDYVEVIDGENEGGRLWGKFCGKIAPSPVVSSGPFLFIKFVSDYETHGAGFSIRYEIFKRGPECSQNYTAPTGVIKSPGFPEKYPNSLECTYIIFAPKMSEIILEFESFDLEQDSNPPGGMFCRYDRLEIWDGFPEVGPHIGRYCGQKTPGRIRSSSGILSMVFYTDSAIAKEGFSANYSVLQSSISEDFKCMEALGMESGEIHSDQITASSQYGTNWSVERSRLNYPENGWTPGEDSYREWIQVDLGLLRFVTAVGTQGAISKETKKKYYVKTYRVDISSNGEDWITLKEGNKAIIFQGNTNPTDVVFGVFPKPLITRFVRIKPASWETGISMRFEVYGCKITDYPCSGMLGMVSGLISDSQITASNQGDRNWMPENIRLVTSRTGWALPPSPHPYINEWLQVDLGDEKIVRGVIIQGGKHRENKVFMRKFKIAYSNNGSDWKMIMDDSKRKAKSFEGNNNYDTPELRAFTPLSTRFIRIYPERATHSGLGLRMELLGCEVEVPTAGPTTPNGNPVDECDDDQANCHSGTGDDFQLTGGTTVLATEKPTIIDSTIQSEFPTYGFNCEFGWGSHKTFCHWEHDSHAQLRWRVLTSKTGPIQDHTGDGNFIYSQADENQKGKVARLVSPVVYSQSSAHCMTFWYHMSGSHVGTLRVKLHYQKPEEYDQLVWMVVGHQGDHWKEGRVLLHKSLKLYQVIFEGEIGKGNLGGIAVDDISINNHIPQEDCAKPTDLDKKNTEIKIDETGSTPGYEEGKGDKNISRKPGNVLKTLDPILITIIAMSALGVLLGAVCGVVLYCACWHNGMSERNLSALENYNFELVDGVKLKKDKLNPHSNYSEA

binding result [1]: no binding | binding result [2]: no binding | binding result [3]: no binding | binding result [4]: no binding
B1: alkaline phosphatase (AP) alone (enzyme, UniProt P05187 23-511, looked up)
chain: IIPVEEENPDFWNREAAEALGAAKKLQPAQTAAKNLIIFLGDGMGVSTVTAARILKGQKKDKLGPEIPLAMDRFPYVALSKTYNVDKHVPDSGATATAYLCGVKGNFQTIGLSAAARFNQCNTTRGNEVISVMNRAKKAGKSVGVVTTTRVQHASPAGTYAHTVNRNWYSDADVPASARQEGCQDIATQLISNMDIDVILGGGRKYMFRMGTPDPEYPDDYSQGGTRLDGKNLVQEWLAKRQGARYVWNRTELMQASLDPSVTHLMGLFEPGDMKYEIHRDSTLDPSLMEMTEAALRLLSRNPRGFFLFVEGGRIDHGHHESRAYRALTETIMFDDAIERAGQLTSEEDTLSLVTADHSHVFSFGGYPLRGSSIFGLAPGKARDRKAYTVLLYGNGPGYVLKDGARPDVTESESGSPEYRQQSAVPLDEETHAGEDVAVFARGPQAHLVHGVQEQTFIAHVMAFAACLEPYTACDLAPPAGTTDAAHPG
notes: Control protein; also called alkaline phosphatase protein
